According to US20200199241A1 (Chugai, published 2020):
Numbering of substitutions follows the chain as printed.

B1: IgG1-F890 (antibody)
heavy: QVQLQESGPGLVKPSETLSLTCAVSGHSISHDHAWSWVRQPPGEGLEWIGFISYSGITNYNPSLQGRVTISRDNSKNTLYLQMNSLRAEDTAVYYCARSLARTTAMDYWGEGTLVTVSSASTKGPSVFPLAPSSKSTSGGTAALGCLVKDYFPEPVTVSWNSGALTSGVHTFPAVLQSSGLYSLSSVVTVPSSSLGTQTYICNVNHKPSNTKVDKKVEPKSCDKTHTCPPCPAPELLGGPSVFLFPPKPKDTLYISRTPEVTCVVVDVSHEDPEVKFNWYVDGVEVHNAKTKPREEQYNSTYRVVSVLTVLHQDWLNGKEYKCKVSNKALPAPIEKTISKAKGQPREPQVYTLPPSRDELTKNQVSLTCLVKGFYPSDIAVEWESNGQPENNYKTTPPVLDSDGSFFLYSKLTVDKSRWQQGNVFSCSVMHEALHYHVTQKSLSLSP
light: not shown
notes: copies: 2 + 2
B2: IgG1-F753 (antibody)
heavy: B1 heavy with P240D, T252Q, V438Y
light: not shown
notes: EU numbering; copies: 2 + 2
B3: IgG1-F781 (antibody)
heavy: B1 heavy with S377A, V438Y
light: not shown
notes: EU numbering; copies: 2 + 2
B4: IgG1-F785 (antibody)
heavy: B1 heavy with L311H, V438Y
light: not shown
notes: EU numbering; copies: 2 + 2
B5: IgG1-F782 (antibody)
heavy: B1 heavy with Y393A, V438Y
light: not shown
notes: EU numbering; copies: 2 + 2
B6: IgG1-F776 (antibody)
heavy: B1 heavy with K342A, V438Y
light: not shown
notes: EU numbering; copies: 2 + 2
B7: IgG1-F766 (antibody)
heavy: B1 heavy with Y254M, T309A, L311E, Q313A, V438Y
light: not shown
notes: EU numbering; copies: 2 + 2
B8: IgG1-F788 (antibody)
heavy: B1 heavy with N317A, V438Y
light: not shown
notes: EU numbering; copies: 2 + 2
B9: IgG1-F767 (antibody)
heavy: B1 heavy with Y254M, T309Q, L311E, Q313A, V438Y
light: not shown
notes: EU numbering; copies: 2 + 2
B10: IgG1-F771 (antibody)
heavy: B1 heavy with E274A, V438Y
light: not shown
notes: EU numbering; copies: 2 + 2
B11: IgG1-F786 (antibody)
heavy: B1 heavy with S256T, N288E, T309Q, Q313A, V438Y
light: not shown
notes: EU numbering; copies: 2 + 2
B12: IgG1-F769 (antibody)
heavy: B1 heavy with Y254M, T309Q, L311E, Q313H, V438Y
light: not shown
notes: EU numbering; copies: 2 + 2
B13: IgG1-F765 (antibody)
heavy: B1 heavy with P240D, T309Q, L311E, Q313A, V438Y
light: not shown
notes: EU numbering; copies: 2 + 2
B14: IgG1-F775 (antibody)
heavy: B1 heavy with K340A, V438Y
light: not shown
notes: EU numbering; copies: 2 + 2
B15: IgG1-F747 (antibody)
heavy: B1 heavy with P240D, T252I, V438Y
light: not shown
notes: EU numbering; copies: 2 + 2
B16: IgG1-F783 (antibody)
heavy: B1 heavy with D415A, V438Y
light: not shown
notes: EU numbering; copies: 2 + 2
B17: IgG1-F763 (antibody)
heavy: B1 heavy with L237R, S241K, N288E, T309Q, Q313A, V438Y
light: not shown
notes: EU numbering; copies: 2 + 2
B18: IgG1-F768 (antibody)
heavy: B1 heavy with Y254M, T309A, L311E, Q313H, V438Y
light: not shown
notes: EU numbering; copies: 2 + 2
B19: IgG1-F779 (antibody)
heavy: B1 heavy with N363A, V438Y
light: not shown
notes: EU numbering; copies: 2 + 2
B20: IgG1-F757 (antibody)
heavy: B1 heavy with P240D, T252W, V438Y
light: not shown
notes: EU numbering; copies: 2 + 2
B21: IgG1-F758 (antibody)
heavy: B1 heavy with P240D, T252Y, V438Y
light: not shown
notes: EU numbering; copies: 2 + 2
B22: IgG1-F756 (antibody)
heavy: B1 heavy with P240D, T252V, V438Y
light: not shown
notes: EU numbering; copies: 2 + 2
B23: IgG1-F746 (antibody)
heavy: B1 heavy with P240D, T252H, V438Y
light: not shown
notes: EU numbering; copies: 2 + 2
B24: IgG1-F780 (antibody)
heavy: B1 heavy with Q364A, V438Y
light: not shown
notes: EU numbering; copies: 2 + 2
B25: IgG1-F750 (antibody)
heavy: B1 heavy with P240D, T252M, V438Y
light: not shown
notes: EU numbering; copies: 2 + 2
B26: IgG1-F770 (antibody)
heavy: B1 heavy with T258A, V438Y
light: not shown
notes: EU numbering; copies: 2 + 2
B27: IgG1-F749 (antibody)
heavy: B1 heavy with P240D, T252L, V438Y
light: not shown
notes: EU numbering; copies: 2 + 2
B28: IgG1-F787 (antibody)
heavy: B1 heavy with S256T, T309Q, L311E, Q313A, V438Y
light: not shown
notes: EU numbering; copies: 2 + 2
B29: IgG1-F751 (antibody)
heavy: B1 heavy with P240D, T252N, V438Y
light: not shown
notes: EU numbering; copies: 2 + 2
B30: IgG1-F764 (antibody)
heavy: B1 heavy with P240D, Y254M, T309Q, Q313A, V438Y
light: not shown
notes: EU numbering; copies: 2 + 2
B31: IgG1-F773 (antibody)
heavy: B1 heavy with V284A, V438Y
light: not shown
notes: EU numbering; copies: 2 + 2
B32: IgG1-F762 (antibody)
heavy: B1 heavy with L237K, S241K, N288E, T309Q, Q313A, V438Y
light: not shown
notes: EU numbering; copies: 2 + 2
B33: IgG1-F784 (antibody)
heavy: B1 heavy with L311A, V438Y
light: not shown
notes: EU numbering; copies: 2 + 2
B34: IgG1-F772 (antibody)
heavy: B1 heavy with K276A, V438Y
light: not shown
notes: EU numbering; copies: 2 + 2
B35: IgG1-F777 (antibody)
heavy: B1 heavy with E347A, V438Y
light: not shown
notes: EU numbering
B36: IgG1-F774 (antibody)
heavy: B1 heavy with N288A, V438Y
light: not shown
notes: EU numbering; copies: 2 + 2
B37: IgG1-F717 (antibody)
heavy: B1 heavy with P240D, N327I, V438Y
light: not shown
notes: EU numbering; copies: 2 + 2
B38: IgG1-F723 (antibody)
heavy: B1 heavy with P240D, L330D, V438Y
light: not shown
notes: EU numbering; copies: 2 + 2
B39: IgG1-F718 (antibody)
heavy: B1 heavy with P240D, Q297M, V438Y
light: not shown
notes: EU numbering; copies: 2 + 2
B40: IgG1-F741 (antibody)
heavy: B1 heavy with P240D, T252A, V438Y
light: not shown
notes: EU numbering; copies: 2 + 2
B41: IgG1-F724 (antibody)
heavy: B1 heavy with P240D, L330E, V438Y
light: not shown
notes: EU numbering; copies: 2 + 2
B42: IgG1-F736 (antibody)
heavy: B1 heavy with S269M, L330E, V438Y
light: not shown
notes: EU numbering; copies: 2 + 2
B43: IgG1-F740 (antibody)
heavy: B1 heavy with T309P, Q313H, V438Y
light: not shown
notes: EU numbering; copies: 2 + 2
B44: IgG1-F739 (antibody)
heavy: B1 heavy with T309P, Q313A, V438Y
light: not shown
notes: EU numbering; copies: 2 + 2
B45: IgG1-F745 (antibody)
heavy: B1 heavy with P240D, T252G, V438Y
light: not shown
notes: EU numbering; copies: 2 + 2
B46: IgG1-F721 (antibody)
heavy: B1 heavy with T309Q, V310P, Q313A, M430I, V438Y
light: not shown
notes: EU numbering; copies: 2 + 2
B47: IgG1-F731 (antibody)
heavy: B1 heavy with Y254M, T309A, Q313H, V438Y
light: not shown
notes: EU numbering; copies: 2 + 2
B48: IgG1-F725 (antibody)
heavy: B1 heavy with L237K, G239R, S241K, V310P, V438Y
light: not shown
notes: EU numbering; copies: 2 + 2
B49: IgG1-F734 (antibody)
heavy: B1 heavy with G238D, L330E, V438Y
light: not shown
notes: EU numbering; copies: 2 + 2
B50: IgG1-F732 (antibody)
heavy: B1 heavy with Y254M, T309Q, Q313H, V438Y
light: not shown
notes: EU numbering; copies: 2 + 2
B51: IgG1-F738 (antibody)
heavy: B1 heavy with P240D, T309P, V438Y
light: not shown
notes: EU numbering; copies: 2 + 2
B52: IgG1-F730 (antibody)
heavy: B1 heavy with Y254M, T309Q, Q313A, V438Y
light: not shown
notes: EU numbering; copies: 2 + 2
B53: IgG1-F729 (antibody)
heavy: B1 heavy with Y254M, T309A, Q313A, V438Y
light: not shown
notes: EU numbering; copies: 2 + 2
B54: IgG1-F720 (antibody)
heavy: B1 heavy with T309Q, V310P, Q313A, V438Y
light: not shown
notes: EU numbering; copies: 2 + 2
B55: IgG1-F744 (antibody)
heavy: B1 heavy with P240D, T252F, V438Y
light: not shown
notes: EU numbering; copies: 2 + 2
B56: IgG1-F726 (antibody)
heavy: B1 heavy with L237K, P240K, S241K, V310P, V438Y
light: not shown
notes: EU numbering; copies: 2 + 2
B57: IgG1-F719 (antibody)
heavy: B1 heavy with P240D, N327G, V438Y
light: not shown
notes: EU numbering; copies: 2 + 2
B58: IgG1-F733 (antibody)
heavy: B1 heavy with L330E, V438Y
light: not shown
notes: EU numbering; copies: 2 + 2
B59: IgG1-F737 (antibody)
heavy: B1 heavy with S269L, L330E, V438Y
light: not shown
notes: EU numbering; copies: 2 + 2

What follows are binders tested against T1, soluble human FcRn complexed with β2-microglobulin (human, UniProt P61769 21-119, limits assumed) (assay: Biacore SPR, pH 7.0;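 note: test antibodies captured on a Protein L chip with human FcRn flowed over as analyte, KD obtained as the ratio of dissociation to association rate constants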).
T1 construct: also called hFcRn

Kd [nM] | Binder
110 | B1
180 | B2
370 | B3
740 | B4
350 | B5
390 | B6
600 | B7
410 | B8
430 | B9
400 | B10
28 | B11
460 | B12
85 | B13
620 | B14
280 | B15
400 | B16
35 | B17
640 | B18

Kd [nM] | Binder
390 | B19
1200 | B20
1400 | B21
370 | B22
600 | B23
390 | B24
300 | B25
500 | B26
510 | B27
88 | B28
530 | B29
630 | B30
390 | B31
36 | B32
500 | B33
380 | B34
390 | B35
400 | B36

The binders below were run against T2, human FcRn (soluble human FcRn complexed with β2-microglobulin) (human, UniProt P61769 21-119, limits assumed) (assay: SPR, pH 7.0;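 note: antibodies captured on a Protein L sensor chip with human FcRn injected as analyte, KD calculated from fitted association and dissociation rate constants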).
T2 construct: also called hFcRn

Kd [nM] | Binder
260 | B37
280 | B38
280 | B39
310 | B40
250 | B41
310 | B42
290 | B43
220 | B44
660 | B45
15 | B46
850 | B47
42 | B48
310 | B49
680 | B50
350 | B51
600 | B52
920 | B53
24 | B54
990 | B55
37 | B56
74 | B57
320 | B58
310 | B59
